Data taken from publication PMC5077683.
Where no end group is shown, it is not given here. The star is where a group is joined. Prodan = Prodan fluorogenic core conjugated to Cys (C*)

Tests used:
[1] = biological target: glutathione S-transferase (GST); assay: ITC
[2] = biological target: glutathione S-transferase (GST); assay: other fluorescence titration

- Kd [1]: 2.4 µM
- Kd [2]: 5.2 µM
B1: Prodan-evolver NTVSC*HGF (1) (peptide)
peptide: NTVSC(Prodan)HGF
